Source: paper PMC11574045, “A cofactor-induced repressive type of transcription factor condensation can be induced by synthetic peptides to suppress tumorigenesis” (The EMBO Journal, 2024)

These molecules were tested on HEK293FT cells transfected with TF library (assay: Screening of TF condensates based on fluorescent puncta). Conditions: Figure 1B numerical data; TF library screen, one value per transcriptional factor.
Format: cell-based
Method in brief: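 TF plasmids (final 1.6 μg/ml) reverse-transfected with PEI (4.8 μg/ml) into HEK293FT cells; after 60 h, cells cultured ±glucose for 12 h, fixed in 4% PFA and immunostained for Flag or GAL4 tags with Alexa 488 secondaries. Puncta scored by automated imaging of 50 random fields per well.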

Molecule	Z score of condensed fraction
NKX2-2 (protein, UniProt O95096 1-273, looked up) Homeobox protein Nkx-2.2: MSLTNTKTGFSVKDILDLPDTNDEEGSVAEGPEEENEGPEPAKRAGPLGQGALDAVQSLPLKNPFYDSSDNPYTRWLASTEGLQYSLHGLAAGAPPQDSSSKSPEPSADESPDNDKETPGGGGDAGKKRKRRVLFSKAQTYELERRFRQQRYLSAPEREHLASLIRLTPTQVKIWFQNHRYKMKRARAEKGMEVTPLPSPRRVAVPVLVRDGKPCHALKAQDLAAATFQAGIPFSAYSAQSLQHMQYNAQYSSASTPQYPTAHPLVQAQQWTW	-0.1567
ATF2/CRE-BP (protein, UniProt P15336 1-505, looked up) Cyclic AMP-dependent …: MKFKLHVNSARQYKDLWNMSDDKPFLCTAPGCGQRFTNEDHLAVHKHKHEMTLKFGPARNDSVIVADQTPTPTRFLKNCEEVGLFNELASPFENEFKKASEDDIKKMPLDLSPLATPIIRSKIEEPSVVETTHQDSPLPHPESTTSDEKEVPLAQTAQPTSAIVRPASLQVPNVLLTSSDSSVIIQQAVPSPTSSTVITQAPSSNRPIVPVPGPFPLLLHLPNGQTMPVAIPASITSSNVHVPAAVPLVRPVTMVPSVPGIPGPSSPQPVQSEAKMRLKAALTQQHPPVTNGDTVKGHGSGLVRTQSEESRPQSLQQPATSTTETPASPAHTTPQTQSTSGRRRRAANEDPDEKRRKFLERNRAAASRCRQKRKVWVQSLEKKAEDLSSLNGQLQSEVTLLRNEVAQLKQLLLAHKDCPVTAMQKKSGYHTADKDDSSEDISVPSSPHTEAIQHSSVSTSNGVSSTSKAEAVATSVLTQMADQSTEPALSQIVMAPSSQSQPSGS	-0.7003
NFKB2 (protein, UniProt Q00653 1-900, looked up) Nuclear factor NF-kappa-B …: MESCYNPGLDGIIEYDDFKLNSSIVEPKEPAPETADGPYLVIVEQPKQRGFRFRYGCEGPSHGGLPGASSEKGRKTYPTVKICNYEGPAKIEVDLVTHSDPPRAHAHSLVGKQCSELGICAVSVGPKDMTAQFNNLGVLHVTKKNMMGTMIQKLQRQRLRSRPQGLTEAEQRELEQEAKELKKVMDLSIVRLRFSAFLRASDGSFSLPLKPVISQPIHDSKSPGASNLKISRMDKTAGSVRGGDEVYLLCDKVQKDDIEVRFYEDDENGWQAFGDFSPTDVHKQYAIVFRTPPYHKMKIERPVTVFLQLKRKRGGDVSDSKQFTYYPLVEDKEEVQRKRRKALPTFSQPFGGGSHMGGGSGGAAGGYGGAGGGGSLGFFPSSLAYSPYQSGAGPMGCYPGGGGGAQMAATVPSRDSGEEAAEPSAPSRTPQCEPQAPEMLQRAREYNARLFGLAQRSARALLDYGVTADARALLAGQRHLLTAQDENGDTPLHLAIIHGQTSVIEQIVYVIHHAQDLGVVNLTNHLHQTPLHLAVITGQTSVVSFLLRVGADPALLDRHGDSAMHLALRAGAGAPELLRALLQSGAPAVPQLLHMPDFEGLYPVHLAVRARSPECLDLLVDSGAEVEATERQGGRTALHLATEMEELGLVTHLVTKLRANVNARTFAGNTPLHLAAGLGYPTLTRLLLKAGADIHAENEEPLCPLPSPPTSDSDSDSEGPEKDTRSSFRGHTPLDLTCSTKVKTLLLNAAQNTMEPPLTPPSPAGPGLSLGDTALQNLEQLLDGPEAQGSWAELAERLGLRSLVDTYRQTTSPSGSLLRSYELAGGDLAGLLEALSDMGLEEGVRLLRGPETRDKLPSTAEVKEDSAYGSQSVEQEAEKLGPPPEPPGGLCHGHPQPQVH	0.04386
ATF3 (protein, UniProt P18847 1-181, looked up) Cyclic AMP-dependent …: MMLQHPGQVSASEVSASAIVPCLSPPGSLVFEDFANLTPFVKEELRFAIQNKHLCHRMSSALESVTVSDRPLGVSITKAEVAPEEDERKKRRRERNKIAAAKCRNKKKEKTECLQKESEKLESVNAELKAQIEELKNEKQHLIYMLNLHRPTCIVRAQNGRTPEDERNLFIQQIKEGTLQS	-0.2156
NKX2-6 (protein, UniProt A6NCS4 1-301, looked up) Homeobox protein Nkx-2.6: MLLSPVTSTPFSVKDILRLERERSCPAASPHPRVRKSPENFQYLRMDAEPRGSEVHNAGGGGGDRKLDGSEPPGGPCEAVLEMDAERMGEPQPGLNAASPLGGGTRVPERGVGNSGDSVRGGRSEQPKARQRRKPRVLFSQAQVLALERRFKQQRYLSAPEREHLASALQLTSTQVKIWFQNRRYKCKRQRQDKSLELAGHPLTPRRVAVPVLVRDGKPCLGPGPGAPAFPSPYSAAVSPYSCYGGYSGAPYGAGYGTCYAGAPSGPAPHTPLASAGFGHGGQNATPQGHLAATLQGVRAW	-0.7176
NKX2.5 (protein, UniProt P52952 1-324, looked up) Homeobox protein Nkx-2.5: MFPSPALTPTPFSVKDILNLEQQQRSLAAAGELSARLEATLAPSSCMLAAFKPEAYAGPEAAAPGLPELRAELGRAPSPAKCASAFPAAPAFYPRAYSDPDPAKDPRAEKKELCALQKAVELEKTEADNAERPRARRRRKPRVLFSQAQVYELERRFKQQRYLSAPERDQLASVLKLTSTQVKIWFQNRRYKCKRQRQDQTLELVGLPPPPPPPARRIAVPVLVRDGKPCLGDSAPYAPAYGVGLNPYGYNAYPAYPGYGGAACSPGYSCTAAYPAGPSPAQPATAAANNNFVNFGVGDLNAVQSPGIPQSNSGVSTLHGIRAW	-0.3246
NFKBIA (protein, UniProt P25963 1-317, looked up) NF-kappa-B inhibitor alpha: MFQAAERPQEWAMEGPRDGLKKERLLDDRHDSGLDSMKDEEYEQMVKELQEIRLEPQEVPRGSEPWKQQLTEDGDSFLHLAIIHEEKALTMEVIRQVKGDLAFLNFQNNLQQTPLHLAVITNQPEIAEALLGAGCDPELRDFRGNTPLHLACEQGCLASVGVLTQSCTTPHLHSILKATNYNGHTCLHLASIHGYLGIVELLVSLGADVNAQEPCNGRTALHLAVDLQNPDLVSLLLKCGADVNRVTYQGYSPYQLTWGRPSTRIQQQLGQLTLENLQMLPESEDEESYDTESEFTEFTEDELPYDDCVFGGQRLTL	0.298
NKX6-2 (protein, UniProt Q9C056 1-277, looked up) Homeobox protein Nkx-6.2: MDTNRPGAFVLSSAPLAALHNMAEMKTSLFPYALQGPAGFKAPALGGLGAQLPLGTPHGISDILGRPVGAAGGGLLGGLPRLNGLASSAGVYFGPAAAVARGYPKPLAELPGRPPIFWPGVVQGAPWRDPRLAGPAPAGGVLDKDGKKKHSRPTFSGQQIFALEKTFEQTKYLAGPERARLAYSLGMTESQVKVWFQNRRTKWRKRHAVEMASAKKKQDSDAEKLKVGGSDAEDDDEYNRPLDPNSDDEKITRLLKKHKPSNLALVSPCGGGAGDAL	-0.6325
NFX1 (protein, UniProt Q12986 1-1120, looked up) Transcriptional repressor …: MAEAPPVSGTFKFNTDAAEFIPQEKKNSGLNCGTQRRLDSNRIGRRNYSSPPPCHLSRQVPYDEISAVHQHSYHPSGSKPKSQQTSFQSSPCNKSPKSHGLQNQPWQKLRNEKHHIRVKKAQSLAEQTSDTAGLESSTRSESGTDLREHSPSESEKEVVGADPRGAKPKKATQFVYSYGRGPKVKGKLKCEWSNRTTPKPEDAGPESTKPVGVFHPDSSEASSRKGVLDGYGARRNEQRRYPQKRPPWEVEGARPRPGRNPPKQEGHRHTNAGHRNNMGPIPKDDLNERPAKSTCDSENLAVINKSSRRVDQEKCTVRRQDPQVVSPFSRGKQNHVLKNVETHTGSLIEQLTTEKYECMVCCELVRVTAPVWSCQSCYHVFHLNCIKKWARSPASQADGQSGWRCPACQNVSAHVPNTYTCFCGKVKNPEWSRNEIPHSCGEVCRKKQPGQDCPHSCNLLCHPGPCPPCPAFMTKTCECGRTRHTVRCGQAVSVHCSNPCENILNCGQHQCAELCHGGQCQPCQIILNQVCYCGSTSRDVLCGTDVGKSDGFGDFSCLKICGKDLKCGNHTCSQVCHPQPCQQCPRLPQLVRCCPCGQTPLSQLLELGSSSRKTCMDPVPSCGKVCGKPLPCGSLDFIHTCEKLCHEGDCGPCSRTSVISCRCSFRTKELPCTSLKSEDATFMCDKRCNKKRLCGRHKCNEICCVDKEHKCPLICGRKLRCGLHRCEEPCHRGNCQTCWQASFDELTCHCGASVIYPPVPCGTRPPECTQTCARVHECDHPVYHSCHSEEKCPPCTFLTQKWCMGKHEFRSNIPCHLVDISCGLPCSATLPCGMHKCQRLCHKGECLVDEPCKQPCTTPRADCGHPCMAPCHTSSPCPVTACKAKVELQCECGRRKEMVICSEASSTYQRIAAISMASKITDMQLGGSVEISKLITKKEVHQARLECDEECSALERKKRLAEAFHISEDSDPFNIRSSGSKFSDSLKEDARKDLKFVSDVEKEMETLVEAVNKGKNSKKSHSFPPMNRDHRRIIHDLAQVYGLESVSYDSEPKRNVVVTAIRGKSVCPPTTLTGVLEREMQARPPPPIPHHRHQSDKNPGSSNLQKITKEPIIDYFDVQD	-0.8733
NKX2-8 (protein, UniProt O15522 1-239, looked up) Homeobox protein Nkx-2.8: MATSGRLSFTVRSLLDLPEQDAQHLPRREPEPRAPQPDPCAAWLDSERGHYPSSDESSLETSPPDSSQRPSARPASPGSDAEKRKKRRVLFSKAQTLELERRFRQQRYLSAPEREQLASLLRLTPTQVKIWFQNHRYKLKRARAPGAAESPDLAASAELHAAPGLLRRVVVPVLVRDGQPCGGGGGGEVGTAAAQEKCGAPPAAACPLPGYPAFGPGSALGLFPAYQHLASPALVSWNW	-0.6353
NFKBIB (protein, UniProt Q15653 1-356, looked up) NF-kappa-B inhibitor beta: MAGVACLGKAADADEWCDSGLGSLGPDAAAPGGPGLGAELGPGLSWAPLVFGYVTEDGDTALHLAVIHQHEPFLDFLLGFSAGTEYMDLQNDLGQTALHLAAILGETSTVEKLYAAGAGLCVAERRGHTALHLACRVGAHACARALLQPRPRRPREAPDTYLAQGPDRTPDTNHTPVALYPDSDLEKEEEESEEDWKLQLEAENYEGHTPLHVAVIHKDVEMVRLLRDAGADLDKPEPTCGRSPLHLAVEAQAADVLELLLRAGANPAARMYGGRTPLGSAMLRPNPILARLLRAHGAPEPEGEDEKSGPCSSSSDSDSGDEGDEYDDIVVHSSRSQTRLPPTPASKPLPDDPRPV	1.097
NFYB (protein, UniProt P25208 1-207, looked up) Nuclear transcription factor …: MTMDGDSSTTDASQLGISADYIGGSHYVIQPHDDTEDSMNDHEDTNGSKESFREQDIYLPIANVARIMKNAIPQTGKIAKDAKECVQECVSEFISFITSEASERCHQEKRKTINGEDILFAMSTLGFDSYVEPLKLYLQKFREAMKGEKGIGGAVTATDGLSEELTEEAFTNQLPAGLITTDGQQQNVMVYTTSYQQISGVQQIQFS	0.9401
NF-YB (protein, UniProt P25208 1-207, looked up) Nuclear transcription factor …: MTMDGDSSTTDASQLGISADYIGGSHYVIQPHDDTEDSMNDHEDTNGSKESFREQDIYLPIANVARIMKNAIPQTGKIAKDAKECVQECVSEFISFITSEASERCHQEKRKTINGEDILFAMSTLGFDSYVEPLKLYLQKFREAMKGEKGIGGAVTATDGLSEELTEEAFTNQLPAGLITTDGQQQNVMVYTTSYQQISGVQQIQFS	0.001922
